In patent publication US20190367633A1 (BEIJING HANMI PHARMACEUTICAL, published 2019):

Legend:
[1] = biological target: T1, Recombinant human PD-1 (Beijing Yiqiao Shenzhou, Cat. No. 10377-H08H) (human, UniProt Q15116 25-167); assay: ELISA, antigen coated at 1 ug/mL
T1 construct: Bought protein coated on the ELISA plate
Procedure: The coating was performed at 4° C. overnight. […] Color development was terminated by adding 100 μL/well of 1 M H₂SO₄. The absorbance at 450 nm was read on a microplate reader.

[2] = biological target: T2, PD-1 on PD-1-overexpressing CHO/PD-1 cells (GenScript, Cat. No. M00529) (UniProt Q15116 25-288, limits assumed); assay: flow cytometry, association of PKH26-stained CHO/PD-1 and CFSE-stained SK-BR-3 cells
T2 construct: whole, on cells
T2 sequence (Q15116 25-288 limits assumed, one chain of several): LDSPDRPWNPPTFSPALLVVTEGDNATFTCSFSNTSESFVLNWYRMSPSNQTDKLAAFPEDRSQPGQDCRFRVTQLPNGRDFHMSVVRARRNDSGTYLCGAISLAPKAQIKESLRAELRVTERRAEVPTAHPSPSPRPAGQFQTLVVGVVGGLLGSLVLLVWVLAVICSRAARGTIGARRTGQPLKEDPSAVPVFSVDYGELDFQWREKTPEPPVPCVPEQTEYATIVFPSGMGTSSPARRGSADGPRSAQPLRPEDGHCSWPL

T1 sequence (Q15116 25-167 limits assumed): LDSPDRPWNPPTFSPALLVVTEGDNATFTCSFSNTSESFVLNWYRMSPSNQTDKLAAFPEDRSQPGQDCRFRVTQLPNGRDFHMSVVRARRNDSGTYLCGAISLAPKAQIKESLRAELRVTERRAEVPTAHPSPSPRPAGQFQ

binding result [1]: binds
binding result [2]: binds
B1: anti-PD-1pem/anti-HER2 heterodimeric bispecific antibody (bispecific antibody, human IgG1, kappa)
heavy 1: not shown
light 1: EIVLTQSPATLSLSPGERATLSCRASKGVSTSGYSYLHWYQQKPGQAPRLLIYLASYLESGVPARFSGSGSGTDFTLTISSLEPEDFAVYYCQHSRDLPLTFGGGTKVEIKRTVAAPSVFIFPPSDEQLKSGTASVVCLLNNFYPREAKVQWKVDNALQSGNSQESVTEQDSKDSTYSLSSTLTLSKADYEKHKVYACEVTHQGLSSPVTKSFNRGEC
heavy 2: not shown
light 2: not shown
notes: also called PD-1/HER2 heterodimeric antibody; PD-1/HER2 heterodimer
